From paper PMC5150656 come the findings set out here.

As usually defined, the Kd is the free concentration of one partner at which half of the binding sites on the other are occupied at equilibrium, for simple one-to-one binding. The term stoichiometry N denotes the number of molecules, sites or subunits per partner or assembly.

Test [1] deals with CaV1.2 holochannel tagged with EYFP on its carboxy-terminus, co-expressed with β2a and α2δ subunits (UniProt P15381). Put plainly: FRET or BRET; FRET 2-hybrid (3^3-FRET and E-FRET) in single live HEK293 cells, room temperature, basal (resting) Ca2+: Tyrode's bath with 2 mM Ca2+; relative (effective) dissociation constants Kd,EFF; stoichiometry ratio ν = EA,max/ED,max.
Test [2] concerns the target EYFP tagged myosin Va five tandem IQ domain truncation (IQ2-6) (mouse) (UniProt Q99104). Described as above.
In test [3] the target is EYFP tagged myosin Va four tandem IQ domain peptide (IQ3-6) (mouse) (UniProt Q99104). The description is as above.
In test [4] the target is EYFP tagged myosin Va peptide containing a single IQ domain (IQ6) (mouse) (UniProt Q99104). Described as above.
Test [5] concerns the target EYFP tagged myosin Va three tandem IQ domain peptide (IQ4-6) (mouse) (UniProt Q99104). The description is as above.
The target of test [6] is EYFP tagged myosin Va two tandem IQ domain peptide (IQ5-6) (mouse) (UniProt Q99104). The description is as above.
Test [7] concerns the target EYFP-tagged full length myosin Va neck domain peptide containing six IQ domains (IQ1-6) (mouse) (UniProt Q99104). The description is as above.
The target in test [8] is NaV1.4 with EYFP fused to its carboxy-terminus (rat) (UniProt P15390). The test is described as above.
Test [9] concerns the target CaV1.2 holochannel tagged with EYFP on its carboxy-terminus, co-expressed with β2a and α2δ subunits (UniProt P15381). In words: FRET or BRET; FRET 2-hybrid (3^3-FRET and E-FRET) in single live HEK293 cells, room temperature, elevated cytosolic Ca2+: Tyrode's bath with 10 mM Ca2+ and 4 μM ionomycin; relative (effective) dissociation constants Kd,EFF; stoichiometry ratio ν = EA,max/ED,max.

The target of test [10] is EYFP-fused myosin Va peptide containing four tandem IQ domains (IQ3-6) (mouse) (UniProt Q99104). In words: FRET or BRET; FRET 2-hybrid in live HEK293 cells co-expressing a CFP-tagged and a YFP-tagged partner; 3^3-FRET (EA) and E-FRET (ED) efficiencies from single cells, room temperature; stoichiometry from the ratio EA,max/ED,max. (Bioluminescence resonance energy transfer reports proximity on the nanometre scale.)

The target of test [11] is EYFP-tagged myosin Va peptide containing three tandem IQ domains (IQ4-6) (mouse) (UniProt Q99104). The test is described as above.
Test [12] concerns the target EYFP-tagged myosin Va peptide containing two IQ domains (IQ5-6) (mouse) (UniProt Q99104). Described as above.
The target in test [13] is YFP-fused myosin Va peptide containing five tandem IQ motifs (IQ2-6) (mouse) (UniProt Q99104). The description is as above.
For test [14], the target named is ECFP fused myosin Va peptide containing five tandem IQ domains (IQ2-6) (mouse) (UniProt Q99104). Described as above.
The target of test [15] is ECFP fused myosin Va peptide containing three tandem IQ domains (IQ4-6) (mouse) (UniProt Q99104). Described as above.
The target of test [16] is ECFP tagged myosin Va peptide containing a single IQ domain (IQ6) (mouse) (UniProt Q99104). Described as above.
Sequence of ECFP tagged myosin Va peptide containing a single IQ domain (IQ6) (mouse) (Q99104 885-920): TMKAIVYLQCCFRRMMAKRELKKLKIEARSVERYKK

Sequence of CaV1.2 holochannel tagged with EYFP on its carboxy-terminus, co-expressed with β2a and α2δ subunits (P15381 whole entry, stated change not applied, chain 1 of 3, other chains not shown, the tested form may be a part): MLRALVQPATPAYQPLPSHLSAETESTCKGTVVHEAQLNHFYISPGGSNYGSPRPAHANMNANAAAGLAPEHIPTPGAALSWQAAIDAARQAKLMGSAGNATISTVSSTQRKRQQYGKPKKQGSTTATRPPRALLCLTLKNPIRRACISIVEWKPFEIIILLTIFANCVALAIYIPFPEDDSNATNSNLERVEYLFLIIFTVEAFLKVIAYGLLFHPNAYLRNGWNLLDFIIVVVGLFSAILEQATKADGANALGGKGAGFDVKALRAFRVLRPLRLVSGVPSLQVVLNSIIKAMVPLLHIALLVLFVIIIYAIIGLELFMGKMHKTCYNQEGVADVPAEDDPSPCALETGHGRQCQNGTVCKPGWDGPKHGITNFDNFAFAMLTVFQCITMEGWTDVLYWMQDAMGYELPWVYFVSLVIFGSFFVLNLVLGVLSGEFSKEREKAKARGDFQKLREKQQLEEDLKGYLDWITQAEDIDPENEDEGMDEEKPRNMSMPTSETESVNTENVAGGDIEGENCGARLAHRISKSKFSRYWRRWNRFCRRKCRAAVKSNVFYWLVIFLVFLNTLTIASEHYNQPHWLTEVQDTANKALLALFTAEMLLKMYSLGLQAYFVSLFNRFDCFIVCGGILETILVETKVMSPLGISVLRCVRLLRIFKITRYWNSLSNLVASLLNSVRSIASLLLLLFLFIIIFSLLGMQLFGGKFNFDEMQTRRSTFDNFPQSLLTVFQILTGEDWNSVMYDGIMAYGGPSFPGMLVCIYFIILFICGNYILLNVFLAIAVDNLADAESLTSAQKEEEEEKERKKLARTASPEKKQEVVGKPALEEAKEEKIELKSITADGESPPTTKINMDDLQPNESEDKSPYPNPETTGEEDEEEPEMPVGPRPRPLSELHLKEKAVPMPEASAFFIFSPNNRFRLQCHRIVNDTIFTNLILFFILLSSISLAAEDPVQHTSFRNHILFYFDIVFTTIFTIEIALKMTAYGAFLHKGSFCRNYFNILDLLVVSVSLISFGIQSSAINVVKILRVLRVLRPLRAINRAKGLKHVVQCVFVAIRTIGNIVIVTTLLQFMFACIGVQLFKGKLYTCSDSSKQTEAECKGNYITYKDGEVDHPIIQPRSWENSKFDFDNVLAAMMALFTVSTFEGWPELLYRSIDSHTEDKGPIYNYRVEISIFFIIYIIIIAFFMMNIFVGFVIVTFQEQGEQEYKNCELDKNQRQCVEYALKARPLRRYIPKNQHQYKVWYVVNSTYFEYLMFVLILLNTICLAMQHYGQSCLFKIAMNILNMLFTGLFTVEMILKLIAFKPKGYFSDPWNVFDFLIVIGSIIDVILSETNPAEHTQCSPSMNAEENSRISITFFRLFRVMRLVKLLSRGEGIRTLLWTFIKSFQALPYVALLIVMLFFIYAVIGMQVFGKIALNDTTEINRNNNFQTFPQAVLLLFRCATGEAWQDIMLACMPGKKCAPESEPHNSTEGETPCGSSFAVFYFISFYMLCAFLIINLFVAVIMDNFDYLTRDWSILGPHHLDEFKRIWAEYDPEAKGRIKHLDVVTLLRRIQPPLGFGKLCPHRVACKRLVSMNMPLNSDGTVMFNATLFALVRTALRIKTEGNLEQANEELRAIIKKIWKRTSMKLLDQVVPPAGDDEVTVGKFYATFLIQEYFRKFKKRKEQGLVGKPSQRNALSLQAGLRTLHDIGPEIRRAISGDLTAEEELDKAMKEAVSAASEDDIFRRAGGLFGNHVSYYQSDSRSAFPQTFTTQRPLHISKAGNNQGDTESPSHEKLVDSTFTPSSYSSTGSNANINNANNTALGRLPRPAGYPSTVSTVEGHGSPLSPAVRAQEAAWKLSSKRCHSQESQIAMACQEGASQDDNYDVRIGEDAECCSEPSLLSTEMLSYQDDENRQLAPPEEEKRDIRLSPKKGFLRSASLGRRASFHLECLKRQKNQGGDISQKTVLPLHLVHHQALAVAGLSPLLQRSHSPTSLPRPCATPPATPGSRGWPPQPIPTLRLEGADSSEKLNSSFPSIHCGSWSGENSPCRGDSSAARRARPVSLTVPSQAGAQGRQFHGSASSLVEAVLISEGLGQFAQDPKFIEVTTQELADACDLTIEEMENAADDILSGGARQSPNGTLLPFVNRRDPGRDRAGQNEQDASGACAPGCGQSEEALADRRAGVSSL
Sequence of CaV1.2 holochannel tagged with EYFP on its carboxy-terminus, co-expressed with β2a and α2δ subunits (P54290 25-1091, stated change not applied, chain 3 of 3, other chains not shown, further chain): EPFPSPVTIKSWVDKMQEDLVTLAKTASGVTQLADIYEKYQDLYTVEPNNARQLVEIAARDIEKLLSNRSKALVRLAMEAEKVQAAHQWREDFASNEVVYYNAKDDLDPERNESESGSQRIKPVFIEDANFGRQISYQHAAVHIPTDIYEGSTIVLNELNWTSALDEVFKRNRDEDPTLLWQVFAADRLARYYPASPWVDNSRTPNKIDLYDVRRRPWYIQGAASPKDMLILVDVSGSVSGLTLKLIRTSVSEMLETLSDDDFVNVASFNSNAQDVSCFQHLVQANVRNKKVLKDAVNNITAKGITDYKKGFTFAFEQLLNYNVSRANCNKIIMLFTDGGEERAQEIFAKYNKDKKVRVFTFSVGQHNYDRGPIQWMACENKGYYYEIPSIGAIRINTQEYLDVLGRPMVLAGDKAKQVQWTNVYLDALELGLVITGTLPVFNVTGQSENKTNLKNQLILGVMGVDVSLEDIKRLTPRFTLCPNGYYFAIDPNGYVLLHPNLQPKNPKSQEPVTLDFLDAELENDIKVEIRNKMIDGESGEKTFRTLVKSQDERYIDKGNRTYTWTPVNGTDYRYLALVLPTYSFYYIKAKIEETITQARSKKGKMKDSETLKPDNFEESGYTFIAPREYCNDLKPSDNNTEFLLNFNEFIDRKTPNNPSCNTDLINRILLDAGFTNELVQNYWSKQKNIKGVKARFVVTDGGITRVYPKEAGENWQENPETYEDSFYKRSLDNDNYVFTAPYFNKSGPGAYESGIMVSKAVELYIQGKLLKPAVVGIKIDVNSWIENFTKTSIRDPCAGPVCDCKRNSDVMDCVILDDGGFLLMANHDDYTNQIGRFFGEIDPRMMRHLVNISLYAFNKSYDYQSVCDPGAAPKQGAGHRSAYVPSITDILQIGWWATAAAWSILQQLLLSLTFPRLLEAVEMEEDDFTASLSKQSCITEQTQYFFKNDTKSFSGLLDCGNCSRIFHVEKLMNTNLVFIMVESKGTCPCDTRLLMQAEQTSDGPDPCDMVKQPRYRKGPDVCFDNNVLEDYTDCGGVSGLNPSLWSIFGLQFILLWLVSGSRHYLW
Sequence of EYFP tagged myosin Va two tandem IQ domain peptide (IQ5-6) (mouse) (Q99104 862-920): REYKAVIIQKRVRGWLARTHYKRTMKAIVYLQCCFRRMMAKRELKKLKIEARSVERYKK
Sequence of EYFP-tagged myosin Va peptide containing two IQ domains (IQ5-6) (mouse) (Q99104 862-920): as above
Sequence of EYFP tagged myosin Va five tandem IQ domain truncation (IQ2-6) (mouse) (Q99104 789-920): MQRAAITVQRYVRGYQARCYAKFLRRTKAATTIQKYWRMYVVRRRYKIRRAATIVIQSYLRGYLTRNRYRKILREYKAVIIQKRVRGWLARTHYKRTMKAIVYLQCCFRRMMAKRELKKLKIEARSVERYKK
Sequence of YFP-fused myosin Va peptide containing five tandem IQ motifs (IQ2-6) (mouse) (Q99104 789-920): as above
Sequence of ECFP fused myosin Va peptide containing five tandem IQ domains (IQ2-6) (mouse) (Q99104 789-920): as above
Sequence of EYFP-tagged full length myosin Va neck domain peptide containing six IQ domains (IQ1-6) (mouse) (Q99104 766-920): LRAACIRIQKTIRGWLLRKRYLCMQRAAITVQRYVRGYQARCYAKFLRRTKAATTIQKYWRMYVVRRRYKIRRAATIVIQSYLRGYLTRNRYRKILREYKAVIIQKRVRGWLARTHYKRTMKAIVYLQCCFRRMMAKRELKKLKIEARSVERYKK
Sequence of EYFP tagged myosin Va peptide containing a single IQ domain (IQ6) (mouse) (Q99104 885-920): as the sequence (Q99104 885-920) above
Sequence of EYFP-fused myosin Va peptide containing four tandem IQ domains (IQ3-6) (mouse) (Q99104 814-920): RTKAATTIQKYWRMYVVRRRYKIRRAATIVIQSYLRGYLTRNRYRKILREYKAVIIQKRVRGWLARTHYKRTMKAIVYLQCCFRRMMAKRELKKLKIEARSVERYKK
Sequence of EYFP tagged myosin Va four tandem IQ domain peptide (IQ3-6) (mouse) (Q99104 814-920): as above
Sequence of EYFP tagged myosin Va three tandem IQ domain peptide (IQ4-6) (mouse) (Q99104 837-920): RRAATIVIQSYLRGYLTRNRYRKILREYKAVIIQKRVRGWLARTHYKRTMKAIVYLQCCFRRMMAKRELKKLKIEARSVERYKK
Sequence of ECFP fused myosin Va peptide containing three tandem IQ domains (IQ4-6) (mouse) (Q99104 837-920): as above
Sequence of EYFP-tagged myosin Va peptide containing three tandem IQ domains (IQ4-6) (mouse) (Q99104 837-920): as above

As to “ECFP-tagged calmodulin (CaM) (from UniProt P0DP23 1-149) (natural protein)”, the Kd in [1] came out at 115 nM. The stoichiometry N (CaM per channel (donors per acceptor)) is 1.1 in test [1], 1.14 in test [8] and 1.94 in test [9]. In addition, the stoichiometry N (CaM per peptide (donors per acceptor)) in [2] amounted to 5; in test [3], 4; in test [4], 0.97; in test [5] it was 3; in test [6], 2; in test [7], 5.91.
“ECFP-tagged calmodulin (from UniProt P0DP23 1-149) (natural protein)”: the stoichiometry N in test [10] amounted to 4; in test [11] it was 3; in test [12], 2; in test [13], 5.
For the substance “EYFP-tagged calmodulin (from UniProt P0DP23 1-149) (natural protein)”, the stoichiometry N in test [14] worked out at 5; in test [15], 3; in [16], 1.
